Assay results taken from PMC11206880, “The RNA Helicase Ded1 from Yeast Is Associated with the Signal Recognition Particle and Is Regulated by SRP21” (Molecules, 2024).

Legend:
Recombinant Ded1-His [1] = target: T1, Recombinant Ded1-His (Saccharomyces cerevisiae, UniProt P06634 1-604); assay: co-IP; purified Ded1 (4 µg) incubated with one purified SRP protein (4-6 µg), no RNA, 1x PBS with 2 mM MgCl2, 45 min, 30 °C; recovered with Ded1-specific IgG cross-linked to protein A-Sepharose beads; SDS-PAGE, Coomassie blue; details: both partners purified
T1 construct: Ded1, DEAD-box RNA helicase of budding yeast, expressed from the pET22b plasmid; also called purified Ded1
T1 sequence (P06634 whole entry): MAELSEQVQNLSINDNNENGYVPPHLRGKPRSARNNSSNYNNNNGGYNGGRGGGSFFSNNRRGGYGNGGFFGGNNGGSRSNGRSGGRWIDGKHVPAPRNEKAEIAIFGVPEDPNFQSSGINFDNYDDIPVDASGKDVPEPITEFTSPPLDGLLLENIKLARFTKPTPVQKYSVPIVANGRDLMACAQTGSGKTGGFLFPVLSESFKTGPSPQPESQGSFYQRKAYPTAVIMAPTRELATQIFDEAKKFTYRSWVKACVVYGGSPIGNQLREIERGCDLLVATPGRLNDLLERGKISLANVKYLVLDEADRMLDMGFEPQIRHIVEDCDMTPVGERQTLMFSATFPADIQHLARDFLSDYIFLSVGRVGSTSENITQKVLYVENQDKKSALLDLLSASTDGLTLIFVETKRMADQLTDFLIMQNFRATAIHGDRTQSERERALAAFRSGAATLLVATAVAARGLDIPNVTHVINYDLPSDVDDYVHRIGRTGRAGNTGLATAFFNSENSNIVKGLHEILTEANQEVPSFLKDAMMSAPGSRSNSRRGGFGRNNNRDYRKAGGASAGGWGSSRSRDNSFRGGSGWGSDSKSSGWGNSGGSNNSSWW

Recombinant Ded1-His [2] = target: T1, Recombinant Ded1-His; assay: co-IP; as a3, but SRP14, SRP21, SRP54 and Sec65 incubated together with Ded1; recovered with Ded1-specific IgG beads; details: both partners purified

Binder	binding result (Recombinant Ded1-His [1])	binding result (Recombinant Ded1-His [2])
His-tagged Sec65 (natural protein, yeast (S. cerevisiae), UniProt P29478 1-273, looked up, Sec65 of yeast, cloned into the XhoI and BamHI sites of pET19b; source: E. coli Rosetta (DE3), purified (Ni-NTA)) MPRLEEIDDFNDIDDLDMELAELDPSLRTPIAPKITPKVVRSQDQENPAFLPGTNNNSNSNNNSSNEKEQLSFINPKTGKVERSEAISKKDLEEVKRFQVLYPCYFDINRSHKEGRRVPKELAVENPLAKTMADAVRELGILCIFEGEKCHPQDFGNPGRIRVLFKENGQLIGAATKFKGGKRQLMKAVGEYMKRHPTTIESLREIPYGPDFDNIEFKKIPRVKGFKMNEIVPLHSPFLMGHPMTKSVYETPKITAAEKSFKPPKNKYKVVRR	binds	
His-tagged SRP14 (natural protein, yeast (S. cerevisiae), UniProt P38985 1-146, looked up, SRP14 of yeast, subcloned into the NdeI and XhoI sites of pET22b; source: E. coli Rosetta (DE3), purified (Ni-NTA)) MANTGCLSPGAFLSKVPEFFQTANEKHITVRLTAKRLIEHDPVEGNLEFDSTNHPDYDVSKKASEISVSSRSDREYPLLIRMSYGSHDKKTKCSTVVKASELDQFWQEYSSVFKGGMQNLIKKKKKKSKNGTISKTGKKNKVAKKN		binds
